{
  "source": "paper PMC4303301",
  "key": {"purified protein [1]": {"substrate": "O=P(O)(O)OC[C@H](O)[C@H](O)[C@H](O)CO", "test": "purified protein", "settings": "50 mM Tris-HCl pH 7.5, 1 mM MgCl2, 25 °C"}, "purified protein [2]": {"substrate": "O=P(O)(O)OC[C@@H](O)[C@@H](O)[C@@H](O)CO", "test": "purified protein", "settings": "50 mM Tris-HCl pH 7.5, 1 mM MgCl2, 25 °C"}},
  "data": [
    {"protein": "EFI-501083; putative 5-amino-6-(5-phospho-D-ribitylamino) uracil phosphatase (Bacteroides thetaiotaomicron VPI-5482) (protein) MIKNIVFDFGGVIVDIDRDKAVQAFIKLGLADADTRLDKYHQTGIFQELEEGKLSADEFRKQLGDLCGRELTMEETKQAWLGFFNEVDLRKLDYILGLRKSYHVYLLSNTNPFVMSWACSPEFSSEGKPLNDYCDKLYLSYQLGHTKPAPEIFDFMIKDSHVIPSETLFVDDGSSNIHIGKELGFETFQPENGADWRQELTVILNS", "values": [
      {"measurement": "Km", "setting": "purified protein [1]", "value": "1030 ± 180", "unit": "µM"},
      {"measurement": "kcat", "setting": "purified protein [1]", "value": "1.8 ± 0.1", "unit": "s⁻¹"},
      {"measurement": "kcat/Km", "setting": "purified protein [1]", "value": 1700, "unit": "M⁻¹ s⁻¹"},
      {"measurement": "Km", "setting": "purified protein [2]", "value": "1080 ± 140", "unit": "µM"},
      {"measurement": "kcat", "setting": "purified protein [2]", "value": "1.5 ± 0.1", "unit": "s⁻¹"},
      {"measurement": "kcat/Km", "setting": "purified protein [2]", "value": 1400, "unit": "M⁻¹ s⁻¹"}
    ]}
  ]
}
